Experimental data from paper doi:10.1101/2025.03.21.644400.

Target: MIYEI
Test: crystal structure

MIYEI
stoichiometry N: 2
